Laboratory results from patent US7063946B2, “Methods, reagents, kits and apparatus for protein function analysis” (Meso Scale Technologies, LLC., priority 2001, dated 2006).

Tests used:
IkBa-24pp (SEQ ID NO: 1) = biological target: T1, IkBa-24pp (SEQ ID NO: 1) (Homo sapiens, UniProt P25963); experiment: Single-well 4-spot assay for multiple peptide-protein interactions; type: binding; conditions: for ECL signal, spot 1 IkBa-24pp: 4-spot plate
T1 construct: two phosphoserines in the DSGLDS motif (chemical modification); purchased New England Peptide, Fitchburg Mass; host or cells: chemical synthesis
T1 sequence (P25963 with tags, fused parts or gaps limits assumed): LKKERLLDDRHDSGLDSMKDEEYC
Excerpt: Four phosphopeptides and their cognate binding proteins (Table 14) were selected for an integrated assay of multiple peptide-protein interaction in 4-spot Multi-Array plates. The IkBa-24pp peptide and its binding protein, βTRCP, are described in Example 10. The remaining peptides are derived from the carboxyl terminus of the EGF receptor. These phosphotyrosine containing peptides are recognized by different adaptor or effecter proteins of the receptor tyrosine kinase signaling pathway.
These four peptides were coupled to BSA carrier protein through cystine residue. After purification on PD-10 gel filtration columns, the peptide-BSA conjugates were then deposited on the assay domains of a 4-spot multi-array IPR plate (i.e., in one of the four exposed regions of working electrode defined by the dielectric layer) with an automated micro-dispensing system (Bio-Dot Dispenser, Bio-Dot, Irvine Calif.). Typically about 120 fmole of peptide:BSA conjugate in 0.25 μl was deposited on each spot of a 4-spot multi-array IPR plate. These plates are dried then used or stored under desiccated conditions. A few hours prior to usage the plates were rehydrated and blocked with 3% BSA in PBS. EST clones encoding βTRCP1 (3491843), βTRCP2 (4237375), mCBP (3872466) Grb2 (4398016) and PLCγ (4419252) (Incyte, Palo Alto, Calif.), were isolated using a QIA-prep column (QIAGEN, Los Angeles, Calif.) and used to program protein expression in a Quick coupled SP6 TnT reaction supplemented with Transcend biotin-tRNA label following the manufactures protocol (Promega, Madison Wis.). The in vitro translated and biotin-labeled proteins were then assayed in the 4-spot multi-array IPR plates under conditions described in Example 10. […] By contrast spots 2–4 in the same wells gave low ECL signals. Thus, in this assay format, each peptide not only serves as the capture agent for assaying specific interaction with its binding protein, but also at the same time serves as a control for other peptide-protein interaction to be determined in the same well. […]

[1] = biological target: T2, IkBa peptide [SEQ ID No. 1] (Homo sapiens, UniProt P25963); experiment: Phosphopeptide binding assay, peptide-BSA coated IPR plate
T2 construct: two phosphoserines in the DSGLDS motif (chemical modification); purchased New England Peptide, Fitchburg Mass; host or cells: chemical synthesis
Excerpt: (§1) A phosphopeptide derived from the IkBa degradation motif (SEQ ID NO: 1) and a phosphopeptide derived from c-Myc (SEQ ID NO: 4) were chemically synthesized (New England Peptide, Fitchburg Mass.) with the following sequences respectively:
A maleimide pre-activated BSA (Pierce, Pittsburgh Pa.), which contains estimated 17 active maleimide groups on the protein surface, was used as the protein carrier, and was supplied as a lyophilized preparation. Coupling of the IkBa peptide (SEQ ID NO: 1) to the pre-activated BSA was carried out with 2 mg BSA (30 nmol) and 17 equivalents of the 25 residue phosphopeptide in 400 μl PBS. The reaction was terminated with 2 mM […] after incubation at room temperature for 30 minutes. The peptide:BSA conjugate was then purified on PD-10 gel filtration column to remove uncoupled peptide and analyzed with SDS PAGE to monitor the coupling reaction. […] After coupling and purification, the column fractions containing the peptide:BSA conjugates were pooled and the protein concentration of the pooled samples was determined by BCA assay (Pierce, Pittsburgh Pa.). NaN3, (0.02%) was added to the final peptide:BSA conjugate sample for long term storage at 4° C. […]
Two βTRCP genes, βTRCP1 and βTRCP2, are present in the human genome on chromosome 5 and 10, respectively. […] The ECL signals were measured using an imaging plate reader (IPR).

[2] = biological target: T3, c-Myc peptide [SEQ ID No. 4] (Homo sapiens, UniProt P01106); experiment: as above
T3 construct: phosphothreonine (T58) and phosphoserine (S62) (chemical modification); purchased New England Peptide, Fitchburg Mass; host or cells: chemical synthesis
T3 sequence (P01106 with tags, fused parts or gaps limits assumed): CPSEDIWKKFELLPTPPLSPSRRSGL
Experimental: as §1
To prepare IPR plates for use in the assay, approximately 2.4 pmol BSA, 1.2 pmole IκBα-24pp peptide-BSA conjugate or 1.2 pmole of Myc-p58Tp62S peptide-BSA conjugate in 2.5 μl were deposited on the carbon working electrode surface in a single well of a 96-well plate. At this stage, the plates were dried then used or stored under desiccated condition. A few hours prior to usage, the plates were rehydrated and blocked with 3% BSA, in PBS.
Two βTRCP genes, βTRCP1 and βTRCP2, are present in the human genome on […], respectively. The coding sequence of these two genes shares over 90% identity and several full-length cDNAs of which are available as EST clones from Incyte (Palo Alto, Calif.) IMAGE #3491843 and 4237375. Also included were three other non specific EST clones as controls (Incyte, Palo alto, Calif.). […] These DNAs were used to produce the βTRCP protein and proteins encoded by the other DNAs as described in the Example 7. Proteins were transferred into wells of the peptide-coated and BSA-blocked IPR plates. […] The ECL signals were measured using an imaging plate reader (IPR).

| Substance | ECL signal, spot 1 IkBa-24pp (IkBa-24pp (SEQ ID NO: 1)) | fold higher ECL signal from spot 1 than with TnT mixtures containing no exogenous DNA (IkBa-24pp (SEQ ID NO: 1); spot 1 (IkBa-24pp-BSA conjugate)) | Average ECL signal, IkBa peptide [SEQ ID No. 1] [1] | Average ECL signal, c-Myc peptide [SEQ ID No. 4] [2] |
| --- | --- | --- | --- | --- |
| 3491843: IMAGE clone protein: βTRCP1 [compound 3491843] | 2466 | 100 fold | 40879 | 2118 |
| 3872466: IMAGE clone protein: mCBP [compound 3872466] | 446 |  | 371 | 351 |
